Measurements from the supplement of paper PMC12636428.

The sequences below were run on Saccharomyces cerevisiae (assay: transcriptional activation domain activity (GFP:mCherry ratio, weighted mean of sorted bins, harmonized to initial dataset scale) (arbitrary fluorescence ratio units); higher = stronger transcriptional activation). Conditions: beta-estradiol 1 µM; induction time 4 h.
Outline: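 The activation activity of each tile is the read-weighted mean of bin median fluorescence, averaged across its barcodes and mapped linearly onto the scale of the initial dataset. Tiles were fused to an estradiol-inducible synthetic transcription factor, barcoded, and integrated at URA3 in yeast diploids carrying a GFP reporter. Induction used 1 uM beta-estradiol in SC for 4 hours at 30 °C, after which cells were sorted into 8 GFP:mCherry bins, and any tile with fewer than 50 reads was dropped.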

| Sequence | transcriptional activation domain activity |
| --- | --- |
| YLAGPRVPFAPLSLPGIFLPTTWWNPGVFYFWTWRNHFYKTWGETVGFAPWFS | 80500 |
| DDPGATPHDPNDPKRPRACEACRGLKVKCEPDPSNPDGPCKRCAKAGRNCVVT | 16300 |
| AGDMGIERTGVDLHNGKHPLNALLKAIVGKLHLPLYFHWGPLNIGSCFSIPYA | 50300 |
| MSETNAPAASAPDALAEGIAKLDVGAEGAQASEAAAPQANGAGEAAPAAAEAS | 23400 |
| YYVILLSIKLFGINSSLWALLITLTNWFNLYLSCRLIPNNIEGILTIIALYYW | 66500 |
| MLHVVGGYSRVRTWVIFLFVFRIGGRAYIDWIGFFFMGFLHWIRFIVVMVLFL | 41800 |
| PKWHRYEDYEALFRVRNLCFPLILSGDIQLTLEYWWSIFSTSILRRPIFELNI | 69600 |
| EAPEPAADAPPPRRVRMSKPKVKTGCRECKTRRVKCDEARPACTRCTRGRREC | 36800 |
| LAELVPKLDDSTVQYAYVRQEYANDSESTRVKFALIIWIGQSTKVMRKARVSI | 52800 |
| TLIHEPDQLLFFPFFLFALFLSFPSFLLPSFFLLFLLFYFFPSYLLLCLFSFI | 51700 |
| SIILLCLPAAYFLFNIFSVGLLSLGFSHRLIPGIPRLRRYIFVPGVFLYIFAR | 54300 |
| MACLFPCMLIFIFLLFISSFFLCFFHSLVSHLPHCVLVLFFISFLLTILTFFF | 50200 |
| MDPGLFLMVLLWLSLPLSIVPWNLPMNWCFQSCDTIRPYQARLSGFFLLLLFQ | 48600 |
| LQKTVNLKNIMKVSDPYVPTRNTFNYDVKISNDFFDNGDNLYGNDEEVLFYED | 61500 |
| FFPSFSFSFSSFSFLLFISSSYSFFLFFPSSYSFFLFFFFYLIPYLLDFFPFL | 50500 |
| VVFVLIIFSLSILPSAPLVKTGALVVLASLLLMPITQQFFLPSLPIWTYLLYF | 47500 |
| LEQHPKDRVKFSTPELVPLDLKNPELDSSFDLNMNLDLNLNLDSNFNIALNRS | 97100 |
| MVSFYYICSCAGSCWMLNARLHLWGLIFTVIFGDTVHVICLLFWFYFYRPPPF | 41200 |
| PVNYLRLTNIGVCDMDDGYDLACHLMLNEPDADSCALLRVLIHRLKECTNLNI | 47100 |
| LFLKIYMLNPLHMTRFADLLYQGAILNRVFQPYESHLQYLLQWMCDYNLYGCA | 65100 |
| MSPSGAVPSTAQVVPGACVNIVLKADQRTGRQVSGTVRDVLTRGDHHRGIKVR | 41300 |
| IMGNLVVLLWHTKVDNIESYLADLSRCIEDFLNVTAQCAPSILILKPKFHFLL | 56300 |
| VKAAAPKRGGRKKKVEAKAEAGDEVEAAVFEKKEVEEEEKEKGGEKEVKETVE | 9930 |
| KQTAAQDSDEEGGGGKLKSKKEKEKEKKEREKQRKKEQAAKKKTAAPAPAKPE | 24400 |
| KQYCVRPNSGRIEPGKDVEVQILLQAMKEDPPPDAKCRDKFLVQSVAVSADKE | 47000 |

| Sequence | transcriptional activation domain activity |
| --- | --- |
| GDAPASFHSFCVVRVFMDVCWLGKRLCLKVLNMDPTCPWLMLLLLKATRLHLS | 65300 |
| GYIGLSSGYFWSGLLYNVSITISLYCLAMFWVCLHDDLVPFRPVPKFLVIKLV | 53000 |
| GDAGGSSAAEQREAGQERRQRRGAERRQRQSVFEQLGGAEQRGAGRGSAGRGG | < 6570 |
| EETKPAESAKETKPVANRPAQKKPEKRKKEEQEGQEVVEKETSKKRAKKDKKS | 39200 |
| EVYLLRFEQCLTRAMTLIRMFFVGSLRALTQDVSRRLAEKDVSQTAQTHLLYT | 46300 |
| DVDEAGEARGDSSSLCLSFLSLLLFFLFFLFFLLFRFLHLLHFFLFLLVFHFF | 47600 |
| MQADNLPFMCVCPYFLSTYSSSLSLVFPLFFFLCLFLLFPFFAFLLLLSLFSC | 44500 |
| MSTNSPESTGDHTDTERKDMPRKRSKVSRACDACRRKKVRCDAEFLTTLQKVT | 79400 |
| DRMYNQISQVFDHLYARQDRTWGRVAEDFRSVLLIRWYFDAASLWVTLWCRYT | 48600 |
| AGDAFGAVESVKSASDIMSPVSGEVVEANVALKDKPALINRSPEEEGWIVRVR | 52900 |
| VDAKFVIVANYGTACVVMGFLAVAMYCLLITVGDDIYFVGMLFSFTIIGTLMI | 29300 |
| NEGCKIITVFNGIFGIVYSFAPMCYFCLCIRVFFFALYKRHWYYHALLSLFWL | 70700 |
| AVSAGLMSGFGSSSDEDEDEEQENEEDVNNEVSYPLHKLSHRFFFGHNAPSGA | 15700 |
| PDVEQMVLHFYLQLCYEFFDRCPTLFHASLGLINPSTSCCCGLLFLLFFVFLY | 72800 |
| CLRVRGVLILTIERLLNDFADAEYRKYAKAILHCHQPYPNSSDCYCQILRSLV | 36900 |
| PSPVLCFRQLCFLVYLIFFNFLLLFCLFAKAEGGIPSCPLQPLDSLYFSLQGF | 49400 |
| ARNGSSSGDILFSNGAHDMINNISTWTNNSVLDALNSKSILQTIFPQSQEPSS | 58200 |
| GKGKRKAVSEEEDKDEEGDEEPVKAKGKGKGKGKRKVVAKKVKRRAPAAADTS | < 6570 |
| GISHNQLSNDDVLLNPSDTGFSPTDNGDGDDGEPHSTLRMAWLLTRVLEHAPL | 46600 |
| EGGADGEEEEDGEEEVKEKVPAKRGRKPRGERVEEVSSPAAPVRGKKAKPTTA | 41200 |
| GKKKKAKKAEVRKARAKASDRAKAKAKAAGPSRASKKAAAPARAKSGDGGKDK | 21600 |
| NLDFFDFENSFGDLWNMDEFYGDVAWDLSSDPPLDPLFIGELYSASGQYGDLQ | 159000 |
| LIKKVKNEKQMYPILVCVLRLYDYVTHIMLIECQCEGIQSAFVSNQLSVKDTG | 52700 |
| MSLYICNLVFSFFFFLFSFFLFLTLIFSSTRADCLWLLQERWYFVLLWNTLPF | 45800 |
| RYLLLSIRDWPCIYIHDLFVFIVSLITDVPDDFLILNFQDLLFFFFVFVFLIF | 66200 |

| Sequence | transcriptional activation domain activity |
| --- | --- |
| MLSLIFLFMIPYIHDNIFISYSPITKFMHLFIPFIIITNIFLFYTYFSILLSL | 37600 |
| PSHRSVTPFLGQQQQLQSLVPLTPSALFGGANFNQSGNIADSSLSFTFTNSSN | 49800 |
| RHASRHASRHASRDASPERRTLRSNLAAAFSGHGRRSRPASPERGGGGGGGAG | 26800 |
| MLYQLFYFSRTKLIILVFFVLFSLLIISLFFFLFIPPFTFFFPFHMPEVFQNI | 38200 |
| MISWLLCFFGFRGGFFYMVFFLICTIFCFAVFGFRFLQLSTFFFHNIFLMFFF | 51900 |
| GFSRTAGAKSMPASRRTSASGDDDELAGHLQGLSLAGERSNRVSPAPAPVSAS | 44900 |
| MPLQLRCLYNCDVSLIVMLLLGLLLGIFPSLHIEICICSRDLLLICMGMWPVR | 45500 |
| MSAATATKPPATGTTPRREATSRASAPSPAAASRTPARSSTPTATASATTSSP | 18000 |
| TDRGGRRGKDYDPADRRHRRRGSSSSSDDRRRSRSRSKSRTRKAAETAAVAGV | 59200 |
| MVRGLFLCFLFSCPWRLLSCCLFLQIFLFSLHLFALKIYVSFFLVHFHACFWA | 60900 |
| MLCDATSGLWILLCFFFFCVVLFVLIVSVFSTLPMWMSYSFFFLFVGFDLLLS | 35600 |
| GGTRRSSNQFGKRNTVALHPVINDFVGTVDSDSLVTAYKPFLASDFIGRGYDD | 28300 |
| MFYYYFSPHFYCFMLPLYIFLFLISLFFIYPSKFYFLLIVMGVGFFSLHLCLP | 51500 |
| NRSDEPELDVKELNRHVNADNLSDLQLDDSQKMGYVYKCLGAGIHLLRLSLRL | 39000 |
| VCKHLKRQRISVDGSLKLISDMNHYFTYIETLKNNELLLYFKALRELSQIYLV | 70700 |
| MSLKEKLSIIHMKIRHRIEMTILLLHIFSIPLCLSFFMLCCSFPFFWPFVILY | 77600 |
| WYHHVPLCILVLLLLAPHPSILYVLLNYHYLTLHATHYFIVHLLTIYAFSFLA | 45900 |
| FFFVNGMWYNMAYIFGSWKLGWWELGAKIFVFQEVYETLLYLLTPFILPISFY | 48600 |
| RAKADAILRELQDTFFPSAAFRAWLTIVTKLIPLSCAVEARRFRPGLDYTLAT | 77700 |
| QAFTIVDPTPPIRFYDLHRLHLTLVHSPMRFFHVAPIIPFLLSYLIELYSLFY | 43100 |
| DQKPIIDQKPLALLLEKLTVSEPPRGGTLGPAWMRERLEASGQMALWKRIVEK | 34100 |
| MVFDCEFQHIQFSGSLLCLPLWDFFLRCIVCGHRSIFYIFYIIFVILFLHFLT | 30500 |
| MPHLCVSVCLFLVLVMKRWLHVCRDIICRSLSWPEYEFSHFCSLIMRVLMLLL | 76300 |
| MGGGVYVCRSGAVYLFWVLLFYGLMFLTVDVITYLLAYLTLPMYLFFLLLVSF | 39200 |
